Laboratory results from publication PMC9372435, “Peptide Centric Vβ Specific Germline Contacts Shape a Specialist T Cell Response” (Frontiers in Immunology, 2022).

What follows are substances tested on TG6 TCR (assay: Surface plasmon resonance of L^d-HF10 (WT and alanine variants) binding to immobilised TG6 TCR). Conditions: SPR, BIAcore SA chip, ~2000 RU biotinylated TG6 TCR; soluble L^d-peptide injected; two-state reaction fit.
Parameters: species or system mouse
Source text: We used two systems to generate L^d-HF10. For biophysical and crystallographic studies of pMHC, we produced soluble L^d-HF10 by baculovirus-infected insect cell expression ([26]). The DNA encoding L^d (α1-α3) and HF10 (or alanine substituted variants) fused via a linker to β2m were cloned into pbac plasmid under polyhedrin and p10 promoters to produce secreted soluble Ld-HF10 from Hi5 insect cells. In this construct, L^d Tyr 84 and Gly at peptide p12 position from the linker that attaches β2m to pHF10 were mutated to cysteines to form a disulfide bond ([27]). Secreted L^d-HF10 in insect cell medium was captured with immunoaffinity chromatography and further purified by GE Healthcare FPLC Superdex 200 10/300 GL size exclusion column. For the crystallography of the TCR/peptide/MHC ternary complex, we produced the wild type L^d variable region (α1-α2). L^d (α1-α2) was expressed in E. coli BL21 as an inclusion body, solubilized in 8M urea, and refolded with synthetic HF10 peptide (HPGSVNEFDF, ordered from Peptide 2.0 Inc.) ([28], [29]). Refolded L^d-HF10 was further purified with a HiLoad Superdex 200 26/600 size chromatography column.
TG6 α and β TCR chains were also produced by both baculovirus insect cell and bacterial expression systems. […]
Approximately 2000 RU of biotinylated TG6 TCR was captured in the flow cells of a BIAcore streptavidin (SA) BIAsensor chip. Various concentrations of insect cell-produced L^d-HF10 and its mutated variant peptides were injected into the sensor chip and the association and dissociation kinetics were recorded and then corrected for the fluid phase SPR signal using the data from the biotinylated mouse BDC2.5 TCR. Kinetics was analyzed with BIAcore BIAEval 4 software. […]
(A) Corrected surface plasmon resonance (SPR) data for the binding of various concentrations of soluble L^d-HF10 to ~2000 RU of biotinylated TG6 TCR immobilized in flow cell on SA sensor chip. […] Upregulation of surface CD25 and CD44 in response to TCR stimulation was measured by flow cytometry. […]
Work on “HPGSVNEFDF [HF10, 10mer peptide from the C-terminus of T. gondii protein GRA6, presented by MHC-I L^d]” yielded a ka2 of 0.002 s⁻¹, a kd1 of 0.014 s⁻¹ and a kd2 of 0.005 s⁻¹.

These substances were tested on tetramer+ CD8 T cells (assay: Immunization with peptide-loaded dendritic cells, expansion of tetramer+ CD8 T cells). Conditions: F1 (H2^bxd) mice, 5x10^6 dendritic cells loaded with 1μM peptide s.c., spleen 7 days post immunization, versus numbers in naive mice.
Type: in vivo
Protocol: Bone marrow-derived dendritic cells from male mice were incubated with 1μM of peptide for 3 hours at 37°C. Cells were washed and 5x10^6 peptide-loaded dendritic cells were injected subcutaneously into naive F1 (H2^bxd) female mice. Mice were sacrificed 7 days post immunization. Peptide sequences: HF10: HPGSVNEFDF; ROP5: YAVANYFFL; GRA4: SPMNGGYYM.
Figure 1 Characteristics of the L^d-HF10 specific T cell response. (A) T. gondii-specific CD8 T cells were quantified by pMHC tetramer staining and flow cytometry of splenocytes at different time points after intraperitoneal infection of F1 (B6xB6.C) mice. Fold change between naive and expanded T cells was calculated using the average number of tetramer+ cells in each population in naive mice (GRA6 = 74.4, ROP5: 654.9, GRA4: 1330). (B) Flow cytometric analysis of size (FSC or forward scatter) or expression of activation and effector markers (CD71, KLRG1, and CD25) on gated tetramer^+ splenic CD8 T cells at day 5 post infection. (C) Mice were immunized with bone marrow-derived dendritic cells loaded with the indicated peptides. Expanded tetramer^+ CD8 T cells were quantified by tetramer staining of splenocytes 7 days post immunization (open circles). Numbers of tetramer^+ CD8 T cells in the spleen were quantified by tetramer enrichment of naïve mice and were used to calculate the fold expansion of each antigen-specific T cell population (closed circles). Statistical significance of differences in fold change between the three groups was calculated using Mann-Whitney tests. GRA6 vs. GRA4: p < 0.0001, GRA6 vs. ROP5: p < 0.0001, GRA4 vs. ROP5: p=0.0002. Statistical significance between tetramer+ T cell populations was calculated by two-way ANOVA. The interaction p-values are as follows: GRA6 vs. GRA4: p < 0.0001, GRA6 vs. ROP5: p < 0.0001, GRA4 vs. ROP5: p=0.99. (D) The frequency of Vβ2 usage amongst L^d-HF10 specific splenic CD8 T cells tetramer enriched from naïve mice or found in T. gondii-infected mice was determined by flow cytometry. […] Clonal diversity in L^d-HF10 specific CD8 T cells was analyzed using the TCRdist algorithm ([40]). […]
For “HPGSVNEFDF [HF10, 10mer peptide from the C-terminus of T. gondii protein GRA6, presented by MHC-I L^d]”, the “Fold expansion of tetramer+ CD8 T cells” value was 4000 x. With SPMNGGYYM [GRA4] the “Fold expansion of tetramer+ CD8 T cells” value was 50 x. For YAVANYFFL [ROP5], the “Fold expansion of tetramer+ CD8 T cells” value was 300 x.

The substances below were run against TG6 TCR, acid-base leucine zipper stabilized, soluble, biotinylated (mouse) (assay: SPR). Conditions: not given.
With “soluble L^d-HF10 (HF10 fused via a linker to β2m, disulfide-trapped), wild-type peptide (peptide-MHC)” the Kd was 420 nM. For “soluble L^d-HF10 (L^d α1-α3 with HF10 fused via a linker to β2m, disulfide-trapped) (peptide-MHC)”, the Kd was 400 nM. In the case of “soluble L^d-HF10 with alanine at peptide position 1 (peptide-MHC)”, the Kd is reported as 1020 nM. “soluble L^d-HF10 with alanine at peptide position 2 (peptide-MHC)” showed a Kd of 1840 nM. Substance “soluble L^d-HF10 with alanine at peptide position 4 (peptide-MHC)” has a Kd of 2400 nM. With “soluble L^d-HF10 with alanine at peptide position 5 (peptide-MHC)” the Kd was 1850 nM. Work on “soluble L^d-HF10 with alanine at peptide position 9 (peptide-MHC)” yielded a Kd of 170000 nM.

Each substance was assayed against H2-L^d on TAP-deficient RMA-S.L^d cells (assay: flow cytometry on cells (RMA-S.Ld surface Ld stabilisation)). Conditions: read at the highest peptide concentration, log [peptide in µM] = 0; parent: est. 670; read off a plot.
Work on HF10 peptide p1A yielded a response of 550 MFI. HF10 peptide p2A was tested, and the response was 100 MFI. In the case of HF10 peptide p3A, the response is reported as 690 MFI. With HF10 peptide p4A the response was 720 MFI. HF10 peptide p5A showed a response of 400 MFI. HF10 peptide p6A showed a response of 440 MFI. Work on HF10 peptide p7A yielded a response of 670 MFI. With HF10 peptide p8A the response was 120 MFI. HF10 peptide p9A showed a response of 430 MFI. HF10 peptide p10A gave a response of 60 MFI.
